Data as given in paper PMC10450178.

Key:
Assay in all cases: BLI
[1] = tested on: Gmab anti-G4 antibody fragment (human (Garvan-2 scFv library)); conditions: Buffer R: 20 mM HEPES pH 7.4-7.5, 20 mM NaOAc, 140 mM KOAc, 3 mM Mg(OAc)2, 0.1% Tween20, SPR at 20 C, BLI temperature not …
[2] = biological target: hen egg-white lysozyme (HEL) (Gallus gallus) (UniProt P00698); conditions: Buffer R: 20 mM HEPES pH 7.5, 20 mM NaOAc, 140 mM KOAc, 3 mM Mg(OAc)2, 0.1% Tween20, BLI temperature not stated, low values mean tight binding
Sequence of hen egg-white lysozyme (HEL) (Gallus gallus) (P00698 19-147): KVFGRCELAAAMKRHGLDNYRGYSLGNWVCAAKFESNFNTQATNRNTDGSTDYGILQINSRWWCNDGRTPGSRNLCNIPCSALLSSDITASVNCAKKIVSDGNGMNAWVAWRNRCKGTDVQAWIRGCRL

BG4 anti-G4 antibody = conditions: Buffer R: 20 mM HEPES pH 7.4-7.5, 20 mM NaOAc, 140 mM KOAc, 3 mM Mg(OAc)2, 0.1% Tween20, SPR at 20 C, BLI temperature not …

Sequence: GTGCTGTTCGTTTAAATGTGTGTCGTCGTTCGCTATCC [LYS-S8-19-core14 (HNA)]
- Kd ([1]; all-HNA (1',5'-anhydrohexitol)): 32.3 nM
- Kd ([2]; all-HNA (1',5'-anhydrohexitol)): 48.8 nM
- Kd (BG4 anti-G4 antibody; all-HNA (1',5'-anhydrohexitol)): 5.3 nM

Sequence: GTTCGTTTAAATATGTGTCGTCGTTCGCTATCC [core13 G13A]
- Kd ([2]; all-HNA): 97.9 nM

Sequence: GTTCGTTTAAATGTGTGTCGTCGTTCGCTATCC [LYS-S8-19-core13 (HNA)]
- Kd ([1]; ka 8.47e4, kd 1.00e-2, all-HNA): 118 nM
- Kd ([2]; all-HNA): 68.8 nM

Sequence: GTTCGTTTAAATGTGTGTCGTCGTTCCCTATCC [core13 G27C]
- Kd ([2]; all-HNA): 116 nM

Sequence: GTTCGTTTAAATGTGTGTCGTCGTTCACTATCC [core13 G27A]
- Kd ([2]; all-HNA): 9.28 nM

Sequence: CGGGCGGGCGCGAGGGAGGGG [KIT2 G4]
- Kd ([1]; ka 7.5e4 M-1s-1, kd 2.7e-4 s-1): 3.6 nM
- Kd (BG4 anti-G4 antibody; ka 7.9e4 M-1s-1, kd 1.5e-4 s-1): 1.9 nM
